From publication doi:10.1101/2025.02.04.636439 (bioRxiv, 2025)

Biological target: T1, Mycobacterium tuberculosis thiosulfate-sulfurtransferase SseA (Mycobacterium tuberculosis, UniProt P9WHF7 1-297)
T1 sequence: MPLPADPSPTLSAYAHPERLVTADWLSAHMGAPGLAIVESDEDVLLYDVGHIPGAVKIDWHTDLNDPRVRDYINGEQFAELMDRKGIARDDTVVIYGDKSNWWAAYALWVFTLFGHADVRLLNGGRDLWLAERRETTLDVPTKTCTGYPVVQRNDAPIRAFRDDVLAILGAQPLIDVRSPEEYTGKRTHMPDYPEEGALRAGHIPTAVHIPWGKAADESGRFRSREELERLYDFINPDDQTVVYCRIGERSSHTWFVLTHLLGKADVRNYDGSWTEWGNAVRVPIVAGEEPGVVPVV
Test: ITC

B1: SufEMtb (Rv3284), SufE-like protein of Mycobacterium tuberculosis (natural protein)
chain: MTAPASLPAPLAEVVSDFAEVQGQDKLRLLLEFANELPALPSHLAESAMEPVPECQSPLFLHVDASDPNRVRLHFSAPAEAPTTRGFASILAAGLDEQPAADILAVPEDFYTELGLAALISPLRLRGMSAMLARIKRRLREAD
  Kd: 3.3 µM
  dH: -11.6 kcal/mol
  stoichiometry N: 1
